This passage reports protein stability index results from the supplement of paper PMC9732359.

± gives the uncertainty stated by the source.

The nature of the data set: protein stability index of a GFP-peptide fusion (yeast GPS) (PSI 1-4); higher = more stable; sorted into four equal gates, so the index is relative within each strain. Summed up: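 Each library plasmid carries Cherry plus GFP with a tiled 17-residue yeast protein peptide fused downstream, and the pooled library was carried in yeast. Mid-log cultures in leucine-free medium were sorted into four equal gates by GFP/Cherry ratio. Reads from Illumina sequencing of PCR-amplified plasmids from each gate were assigned to strains by barcodes. Per peptide, the protein stability index was computed as the summed products of gate read frequency and gate number.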

RGNIKVMFATNRPNTLD [RPT1]: the protein stability index by setting is: (doa10∆) 2.91 ± 0.079; (pdr5∆) 3.05 ± 0.088; (san1∆) 3.02 ± 0.063; (ubr1∆) 2.98 ± 0.085.
The corresponding values for ERLMSRPFGVALLIAGH [PUP2] are 2.81 ± 0.28, 3.08 ± 0.11, 2.74 ± 0.1 and 2.95 ± 0.081.
Turning to VGRFSTISSADFIQNVG [ECM29], the protein stability index worked out at 3.16 ± 0.1 (doa10∆), 2.65 ± 0.079 (pdr5∆), 3.03 ± 0.08 (san1∆) and 2.72 ± 0.088 (ubr1∆).
The corresponding values for FYGVLDQGNGWLYVYET [RPN6] are 2.9 ± 0.095, 2.65 ± 0.073, 1.9 ± 0.095 and 3.02 ± 0.071.
On to LTEEELKTRYVGRQDPK [RPN11], for which the protein stability index reads like this: (pdr5∆) 3.36 ± 0.13; (san1∆) 3.26 ± 0.14; (ubr1∆) 3.56 ± 0.21.
Take GSLTFLDNKGSGEDAEE [YIL149C/MLP2]: the protein stability index was found to be 3.48 ± 0.27 (doa10∆), 3.22 ± 0.12 (pdr5∆), 3.56 ± 0.12 (san1∆) and 3.46 ± 0.071 (ubr1∆).
For IMKIGGIKLQMQNSKVE [SMC4], in that order: 2.11 ± 0.13, 1.82 ± 0.1, 2.25 ± 0.12 and 2.1 ± 0.12.
LSRYVKWPEYVRVQRQK [RPL8A] had a protein stability index (pdr5∆) of 2.67 ± 0.13 and a protein stability index (ubr1∆) of 3.02 ± 0.22.
As to QNAADLQQICRVRNKDI [RPL9A], the protein stability index by setting is: (doa10∆) 2.82 ± 0.088; (pdr5∆) 3.3 ± 0.045; (san1∆) 2.59 ± 0.087; (ubr1∆) 2.89 ± 0.06.
In the case of VIFVERATPATLTELKD [SRB2], the protein stability index stood at 2.84 ± 0.091 (doa10∆), 2.02 ± 0.063 (pdr5∆), 2.4 ± 0.12 (san1∆) and 3.23 ± 0.098 (ubr1∆).
For SIDSTSRIELELKNIGL [ECM29], in that order: 2.59 ± 0.052, 2.75 ± 0.045, 2.74 ± 0.042 and 2.44 ± 0.028.
As to LINEILLKSNDPLLSLY [RGR1], the protein stability index is, setting by setting: (doa10∆) 2.04 ± 0.046; (pdr5∆) 2.15 ± 0.043; (san1∆) 1.87 ± 0.077; (ubr1∆) 2.13 ± 0.035.
As to VLTRMDEDRSKKEEELG [SNF2], the protein stability index (doa10∆) stood at 3.51 ± 0.11, the protein stability index (pdr5∆) was found to be 3.22 ± 0.1, the protein stability index (san1∆) worked out at 3.38 ± 0.071 and the protein stability index (ubr1∆) was 3.27 ± 0.084.
The corresponding values for VVPDLGHLNGHTPTIAS [SSN2] are 2.15 ± 0.045, 2.65 ± 0.055, 2.69 ± 0.048 and 2.59 ± 0.038.
Consider QAAGGLSIRLTNQLKSL [RPN8], for which the protein stability index (doa10∆) worked out at 2.75 ± 0.085, the protein stability index (pdr5∆) amounted to 2.57 ± 0.088, the protein stability index (san1∆) came to 2.29 ± 0.11 and the protein stability index (ubr1∆) was found to be 2.19 ± 0.06.
For SKQTPQPKAPRAPKVIH [ISW2], in that order: 2.91 ± 0.05, 3.14 ± 0.054, 2.93 ± 0.041 and 3.14 ± 0.047.
The corresponding values for LATYCPRVQGFYVPQAR [GRR1] are 2.44 ± 0.078, 2.4 ± 0.069, 2.03 ± 0.09 and 3 ± 0.049.
GRNRGRPNRRGPRNTEE [RPS2] displayed a protein stability index (doa10∆) of 3.38 ± 0.069, a protein stability index (pdr5∆) of 3.24 ± 0.16, a protein stability index (san1∆) of 3.58 ± 0.1 and a protein stability index (ubr1∆) of 3.45 ± 0.083.
The corresponding values for ISPDPNLSIDEVAVPDR [RPO31] are 2.87 ± 0.089, 2.76 ± 0.084, 3.23 ± 0.069 and 2.95 ± 0.049.
TIVTGGGSGNGDDVVND [RPP1] came in with a protein stability index (doa10∆) of 3.14 ± 0.26, a protein stability index (pdr5∆) of 3.6 ± 0.17, a protein stability index (san1∆) of 3.22 ± 0.12 and a protein stability index (ubr1∆) of 3.54 ± 0.21.
For SQSSAAAGASVDDKRRN [RPN6], in that order: 3.38 ± 0.2, 3.41 ± 0.088, 3.02 ± 0.087 and 3.25 ± 0.087.
The corresponding values for EHFLKLNIDFGSDKQMF [YML103C/NUP188] are 2.61 ± 0.075, 2.59 ± 0.07, 2.26 ± 0.1 and 3.16 ± 0.061.
In the case of KKGEYARFKSKDERDTW [SMC3], the protein stability index runs as follows: (pdr5∆) 3.23 ± 0.17; (san1∆) 2.69 ± 0.098; (ubr1∆) 3.32 ± 0.17.
LEGETDPLRIAMKELAE [RPO26]: the protein stability index is, setting by setting: (doa10∆) 3.49 ± 0.21; (pdr5∆) 3.34 ± 0.057; (san1∆) 3.27 ± 0.1; (ubr1∆) 3.36 ± 0.15.
The corresponding values for TGAASNQSSFNFGNNGA [YOR098C/NUP1] are 2.65 ± 0.11, 2.79 ± 0.099, 2.5 ± 0.096 and 2.93 ± 0.074.
The corresponding values for ITHTENYNDLIVNYEDL [BRN1] are 3.17 ± 0.09, 2.94 ± 0.12, 2.56 ± 0.14 and 3.2 ± 0.072.
In the case of EESIRESLQKRELLKSQ [SIR3], the protein stability index reads like this: (doa10∆) 3.13 ± 0.063; (pdr5∆) 3.32 ± 0.068; (san1∆) 3 ± 0.056; (ubr1∆) 3.12 ± 0.059.
For DNSESHPFIPLLKEKPN [RRP6], in that order: 1.93 ± 0.066, 1.93 ± 0.059, 1.99 ± 0.071 and 1.99 ± 0.051.
For QLFNWCLMRSLHKLELK [DSN1], in that order: 1.17 ± 0.058, 1.26 ± 0.059, 1.14 ± 0.13 and 1.19 ± 0.058.
The corresponding values for SLKGLQSKLKDVVEYLD [RPN8] are 2.92 ± 0.083, 2.27 ± 0.055, 2.71 ± 0.069 and 2.48 ± 0.048.
As for NPTKSKEILDNILPFLW [ECM29], the protein stability index is 2.26 ± 0.085 (doa10∆), 2.97 ± 0.1 (pdr5∆), 2.8 ± 0.23 (san1∆) and 2.61 ± 0.085 (ubr1∆).
On to IRGNLMGKRVDFSARTV [RPO21], for which the protein stability index (pdr5∆) was found to be 2.76 ± 0.24 and the protein stability index (ubr1∆) was 2.5 ± 0.26.
On to LYNKIWTEASSSGAGTV [ECM29], for which the protein stability index was 2.12 ± 0.065 (doa10∆), 1.76 ± 0.058 (pdr5∆), 2.12 ± 0.081 (san1∆) and 2.93 ± 0.08 (ubr1∆).
The corresponding values for VCKKADVDLHKRAGELT [RPS18A] are 3.23 ± 0.15, 3.31 ± 0.12, 3.39 ± 0.2 and 3.46 ± 0.11.
For SLFHIVVDTEETATLIM [SMC3], in that order: 2.35 ± 0.15, 2.17 ± 0.15, 1.68 ± 0.17 and 2.23 ± 0.098.
Regarding NKGELETQPGCNEEQTL [RPO31], the protein stability index runs as follows: (doa10∆) 3.21 ± 0.16; (pdr5∆) 3.38 ± 0.12; (san1∆) 3.21 ± 0.2; (ubr1∆) 3.2 ± 0.082.
The corresponding values for DEELVSHFVSAVSTIAS [RPP0] are 3.73 ± 0.21, 3.12 ± 0.28, 2.76 ± 0.18 and 2.03 ± 0.2.
